Results as given in patent US20170275666A1, “Methods for Preparing Rebaudioside I and Uses” (The Coca-Cola Company, priority 2014, published 2017).
Numbering of substitutions follows the chain as printed.

B1: UGT76G1var33: UGT76G1 variant, mutations A33G_R334H_Y397Q (protein, UniProt Q6VAB4 1-458, looked up, variant A33G R334H Y397Q)
UDP-glycosyltransferase 76G1: MENKTETTVRRRRRIILFPVPFQGHINPILQLGNVLYSKGFSITIFHTNFNKPKTSNYPHFTFRFILDNDPQDERISNLPTHGPLAGMRIPIINEHGADELRRELELLMLASEEDEEVSCLITDALWYFAQSVADSLNLRRLVLMTSSLFNFHAHVSLPQFDELGYLDPDDKTRLEEQASGFPMLKVKDIKSAYSNWQILKEILGKMIKQTKASSGVIWNSFKELEESELETVIREIPAPSFLIPLPKHLTASSSSLLDHDRTVFQWLDQQPPSSVLYVSFGSTSEVDEKDFLEIARGLVDSKQSFLWVVRPGFVKGSTWVEPLPDGFLGERGHIVKWVPQQEVLAHGAIGAFWTHSGWNSTLESVCEGVPMIFSDFGLDQPLNARYMSDVLKVGVQLENGWERGEIANAIRRVMVDEEGEYIRQNARVLKQKADVSLMKGGSSYESLESLVSYISSL
B2: UGT76G1var49: UGT76G1 variant, mutations F41L_Q266E_T284I_Y397Q (protein, UniProt Q6VAB4 1-458, looked up, variant F41L Q266E T284I Y397Q)
UDP-glycosyltransferase 76G1: B1 UDP-glycosyltransferase 76G1 with G33A, F41L, Q266E, T284I, H334R
B3: UGT76G1var36: UGT76G1 variant, mutations F265L_L379A_V396F (protein, UniProt Q6VAB4 1-458, looked up, variant F265L L379A V396F)
UDP-glycosyltransferase 76G1: B1 UDP-glycosyltransferase 76G1 with G33A, F265L, H334R, L379A, V396F, Q397Y
B4: UGT76G1var39: UGT76G1 variant, mutations F22Y_F41L_V366I (protein, UniProt Q6VAB4 1-458, looked up, variant F22Y F41L V366I)
UDP-glycosyltransferase 76G1: B1 UDP-glycosyltransferase 76G1 with F22Y, G33A, F41L, H334R, V366I, Q397Y
B5: UGT76G1var45: UGT76G1 variant, mutations V279I_D301N_S389E (protein, UniProt Q6VAB4 1-458, looked up, variant V279I D301N S389E)
UDP-glycosyltransferase 76G1: B1 UDP-glycosyltransferase 76G1 with G33A, V279I, D301N, H334R, S389E, Q397Y
B6: UGT76G1var53: UGT76G1 variant, mutations R334K_A352G_P382M_S389E (protein, UniProt Q6VAB4 1-458, looked up, variant R334K A352G P382M S389E)
UDP-glycosyltransferase 76G1: B1 UDP-glycosyltransferase 76G1 with G33A, H334K, A352G, P382M, S389E, Q397Y
B7: UGT76G1var52: UGT76G1 variant, mutations D301N_I373L_F377C_I407V (protein, UniProt Q6VAB4 1-458, looked up, variant D301N I373L F377C I407V)
UDP-glycosyltransferase 76G1: B1 UDP-glycosyltransferase 76G1 with G33A, D301N, H334R, I373L, F377C, Q397Y, I407V
B8: UGT76G1var43: UGT76G1 variant, mutations S241I_P272A_V279I (protein, UniProt Q6VAB4 1-458, looked up, variant S241I P272A V279I)
UDP-glycosyltransferase 76G1: B1 UDP-glycosyltransferase 76G1 with G33A, S241I, P272A, V279I, H334R, Q397Y
B9: UGT76G1var54: UGT76G1 variant, mutations E229A_T284L_R334K_Q342E (protein, UniProt Q6VAB4 1-458, looked up, variant E229A T284L R334K Q342E)
UDP-glycosyltransferase 76G1: B1 UDP-glycosyltransferase 76G1 with G33A, E229A, T284L, H334K, Q342E, Q397Y
B10: UGT76G1var34: UGT76G1 variant, mutations I43V_T284I_I295T (protein, UniProt Q6VAB4 1-458, looked up, variant I43V T284I I295T)
UDP-glycosyltransferase 76G1: B1 UDP-glycosyltransferase 76G1 with G33A, I43V, T284I, I295T, H334R, Q397Y
B11: UGT76G1var1: UGT76G1 variant, mutations E224A_F314S_R334K (protein, UniProt Q6VAB4 1-458, looked up, variant E224A F314S R334K)
UDP-glycosyltransferase 76G1: B1 UDP-glycosyltransferase 76G1 with G33A, E224A, F314S, H334K, Q397Y
B12: UGT76G1var50: UGT76G1 variant, mutations F22Y_V310I_S375M_F377C (protein, UniProt Q6VAB4 1-458, looked up, variant F22Y V310I S375M F377C)
UDP-glycosyltransferase 76G1: B1 UDP-glycosyltransferase 76G1 with F22Y, G33A, V310I, H334R, S375M, F377C, Q397Y
B13: UGT76G1var40: UGT76G1 variant, mutations T263S_Q266E_S375R (protein, UniProt Q6VAB4 1-458, looked up, variant T263S Q266E S375R)
UDP-glycosyltransferase 76G1: B1 UDP-glycosyltransferase 76G1 with G33A, T263S, Q266E, H334R, S375R, Q397Y
B14: UGT76G1var46: UGT76G1 variant, mutations F22L_Q266E_I295M (protein, UniProt Q6VAB4 1-458, looked up, variant F22L Q266E I295M)
UDP-glycosyltransferase 76G1: B1 UDP-glycosyltransferase 76G1 with F22L, G33A, Q266E, I295M, H334R, Q397Y
B15: UGT76G1var35: UGT76G1 variant, mutations T284L_F314S_S357N (protein, UniProt Q6VAB4 1-458, looked up, variant T284L F314S S357N)
UDP-glycosyltransferase 76G1: B1 UDP-glycosyltransferase 76G1 with G33A, T284L, F314S, H334R, S357N, Q397Y
B16: UGT76G1var2: UGT76G1 variant, mutations S274G_T284I_L379G (protein, UniProt Q6VAB4 1-458, looked up, variant S274G T284I L379G)
UDP-glycosyltransferase 76G1: B1 UDP-glycosyltransferase 76G1 with G33A, S274G, T284I, H334R, L379G, Q397Y
B17: UGT76G1var44: UGT76G1 variant, mutations I335V_S375R_I407V (protein, UniProt Q6VAB4 1-458, looked up, variant I335V S375R I407V)
UDP-glycosyltransferase 76G1: B1 UDP-glycosyltransferase 76G1 with G33A, H334R, I335V, S375R, Q397Y, I407V
B18: UGT76G1var41: UGT76G1 variant, mutations L246F_A385T_K393G (protein, UniProt Q6VAB4 1-458, looked up, variant L246F A385T K393G)
UDP-glycosyltransferase 76G1: B1 UDP-glycosyltransferase 76G1 with G33A, L246F, H334R, A385T, K393G, Q397Y
B19: UGT76G1var38: UGT76G1 variant, mutations F41L_I295M_F377C (protein, UniProt Q6VAB4 1-458, looked up, variant F41L I295M F377C)
UDP-glycosyltransferase 76G1: B1 UDP-glycosyltransferase 76G1 with G33A, F41L, I295M, H334R, F377C, Q397Y
B20: UGT76G1var48: UGT76G1 variant, mutations V394I_Y397E_Q432E (protein, UniProt Q6VAB4 1-458, looked up, variant V394I Y397E Q432E)
UDP-glycosyltransferase 76G1: B1 UDP-glycosyltransferase 76G1 with G33A, H334R, V394I, Q397E, Q432E
B21: UGT76G1var42: UGT76G1 variant, mutations T263S_Q266S_R334H (protein, UniProt Q6VAB4 1-458, looked up, variant T263S Q266S R334H)
UDP-glycosyltransferase 76G1: B1 UDP-glycosyltransferase 76G1 with G33A, T263S, Q266S, Q397Y
B22: UGT76G1var47: UGT76G1 variant, mutations E229A_T284I_S389E (protein, UniProt Q6VAB4 1-458, looked up, variant E229A T284I S389E)
UDP-glycosyltransferase 76G1: B1 UDP-glycosyltransferase 76G1 with G33A, E229A, T284I, H334R, S389E, Q397Y
B23: UGT76G1var37: UGT76G1 variant, mutations E229A_L379G_I407V (protein, UniProt Q6VAB4 1-458, looked up, variant E229A L379G I407V)
UDP-glycosyltransferase 76G1: B1 UDP-glycosyltransferase 76G1 with G33A, E229A, H334R, L379G, Q397Y, I407V
B24: UGT76G1var51: UGT76G1 variant, mutations K303G_S357C_S389E_V396F (protein, UniProt Q6VAB4 1-458, looked up, variant K303G S357C S389E V396F)
UDP-glycosyltransferase 76G1: B1 UDP-glycosyltransferase 76G1 with G33A, K303G, H334R, S357C, S389E, V396F, Q397Y

Experiment: Directed evolution of UGT76G1, conversion of Rebaudioside D to Rebaudioside M (round 1)
Assay type: biochemical
Settings: 0.5 mM Rebaudioside D, 2.5 mM UDP-Glucose, 100 μL fresh lysate, 30° C., pH 7.2
Excerpt: Starting from the amino acid sequence of UGT76G1, as is described in Genbank (AAR06912.1), different mutations at various amino acid positions were identified that could alter the activity of the enzyme for the transformation of Rebaudioside D (Reb D) to Rebaudioside M (Reb M). This list of mutations, designed by DNA2.0 ProteinGPS™ strategy, was subsequently used to synthesize 96 variant genes that contained 3, 4 or 5 of these mutations that were codon-optimized for expression in E. coli. The genes were subcloned in the pET30a+ plasmid and used for transformation of E. coli BL21 (DE3) chemically competent cells. The obtained cells were grown in Petri-dishes on solid LB medium in the presence of Kanamycin. Suitable colonies were selected and allowed to grow in liquid LB medium in tubes. Glycerol was added to the suspension as cryoprotectant and 400 μL aliquots were stored at −20° C. and at −80° C.
These storage aliquots of E. coli BL21(DE3) containing the pET30a+_UGT76G1var plasmids were thawed and added to LBGKP medium (20 g/L Luria Broth Lennox; 50 mM PIPES buffer pH 7.00; 50 mM Phosphate buffer pH 7.00; 2.5 g/L glucose and 50 mg/L of Kanamycine). This culture was allowed to shake in a 96 microtiter plate at 135 rpm at 30° C. for 8 h.
3.95 mL of production medium containing 60 g/L of Overnight Express™ Instant TB medium (Novagen®), 10 g/L of glycerol and 50 mg/L of Kanamycin was inoculated with 50 μL of above described culture. In a 48 deepwell plate the resulting culture was allowed to stir at 20° C. The cultures gave significant growth and a good OD (600 nm; 1 cm) was obtained. After 44 h, the cells were harvested by centrifugation and frozen.
Lysis was performed by addition of Bugbuster® Master mix (Novagen®) to the thawed cells and the lysate was recovered by centrifugation. Activity tests were performed with 100 μL of fresh lysate that was added to a solution of Rebaudioside D (final concentration 0.5 mM), MgCl2 (final concentration 3 mM) and UDP-Glucose (final concentration 2.5 mM) in 50 mM phosphate buffer pH 7.2.
The reaction was allowed to run at 30° C. and samples were taken after 2, 4, 7 and 24 h. to determine conversion and initial rate by HPLC (CAD detection) using the analytical method that was described above for the transformation of Rebaudioside D to Rebaudioside M. The results are depicted in the following table.

| Molecule | Conversion Reb D to Reb M after 24 h (%) | initial rate (Reb M area/min) |
| --- | --- | --- |
| B1 | 1.0 | 7.5E+06 |
| B2 | 2.6 | 1.1E+06 |
| B3 | 20.0 | 8.8E+06 |
| B4 | 7.2 | 3.3E+06 |
| B5 | 38.6 | 2.3E+07 |
| B6 | 9.3 | 4.1E+06 |
| B7 | 12.9 | 4.6E+06 |
| B8 | 19.9 | 9.4E+06 |
| B9 | 0.7 | 4.3E+05 |
| B10 | 3.4 | 1.5E+06 |
| B11 | 51.8 | 5.5E+07 |
| B12 | 1.9 | 7.9E+05 |
| B13 | 47.6 | 3.3E+07 |
| B14 | 0.6 | 9.8E+05 |
| B15 | 0.5 | 1.8E+05 |
| B16 | 49.3 | 4.7E+07 |
| B17 | 35.3 | 2.3E+07 |
| B18 | 0.8 | 1.4E+06 |
| B19 | 8.2 | 3.7E+06 |
| B20 | 47.6 | 3.8E+07 |
| B21 | 34.6 | 2.2E+07 |
| B22 | 4.8 | 2.7E+06 |
| B23 | 39.1 | 2.8E+07 |
| B24 | 18.7 | 9.5E+06 |
